Experimental data reported in patent US10808249B2, “Methods and compositions for weed control” (Monsanto Technology LLC, priority 2011, dated 2020).

System: Glyphosate-sensitive Palmer amaranth (A. palmeri R-22) plants
Assay: Palmer amaranth pre-treated with PDS trigger oligonucleotides, then norflurazon
Assay type: in vivo, Amaranthus palmeri
Conditions: mixture of oligonucleotides incl. SEQ ID NO: 2137 at 0.8 nmol, 0.5% Silwet L-77; norflurazon 675 g ai/ha 24 and 48 h later; compared with norflurazon alone
Method: Glyphosate-sensitive Palmer amaranth (A. palmeri R-22) plants were grown in the greenhouse (30/20 C day/night T; 14 hour photoperiod) in 4 inch square pots containing Sun Gro® Redi-Earth and 3.5 kg/cubic meter Osmocote® 14-14-14 fertilizer. Palmer amaranth plants at 5 to 10 cm in height were pre-treated with a mixture of oligonucleotides one of which was a SEQ ID NO: 2137 at 0.8 nmol comprising at least one oligonucleotide targeting PDS coding or noncoding regions, formulated in 10 millimolar sodium phosphate buffer (pH 6.8) containing 2% ammonium sulfate and 0.5% Silwet L-77. Plants were treated manually by pipetting 10 μL of polynucleotide solution on four fully expanded mature leaves, for a total of 40 microliters of solution per plant. Twenty-four and forty-eight hours later, the plants were treated with norflurazon (Solicam®, Syngenta, Greensboro, N.C.) at 675 g ai/ha, crop oil concentrate (COC) at 1% is added to the herbicide treatments. Four replications of each treatment was conducted. Plant height is determined just before ssDNA treatment and at intervals upto twelve days after herbicide treatments to determine effect of the oligonucleotide and herbicide treatments.

B1: SEQ ID NO: 2137: ssDNA trigger oligonucleotide targeting PDS, one of a mixture applied to Palmer amaranth before norflurazon (nucleic acid, listed as Amaranthus palmeri)
antisense: ACCGAUUCCUGCAGGAGAAACAUGGUUCUAAGAUGGCCUUCCUAGACGGAAACCCUCCAGAGAGGCUGUGCAUGCCUAUUGUUAAACACAUCGAGUCACUAGGUGGUGAAGUUAAACUUAACUCUCGUAUACAAAAGAUUCAGUUGGACCAGAGUGGAAGCGUGAAGAGUUUUUUGCUAAAUAACGGGAGG
injury to the plants (FIG. 1): more injury to the plants than the norflurazon alone
